According to IntAct's records for PubMed 24121231:

Target: not2_yeast CDC36 (UniProt P06100)
Sequence of UniProt P06100 (P06100 whole entry): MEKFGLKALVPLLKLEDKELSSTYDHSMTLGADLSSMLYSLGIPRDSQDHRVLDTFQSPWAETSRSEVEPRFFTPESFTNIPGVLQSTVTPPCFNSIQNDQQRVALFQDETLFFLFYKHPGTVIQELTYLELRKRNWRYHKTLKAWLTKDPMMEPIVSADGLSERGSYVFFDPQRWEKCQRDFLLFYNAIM

effect of a mutation on the interaction	Substance
disrupting interaction strength	General negative regulator of transcription subunit 1 (Saccharomyces cerevisiae), P25655 F1751E
disrupting interaction strength	General negative regulator of transcription subunit 1 (Saccharomyces cerevisiae), P25655 R1811E;L1814E
